Experimental data as given in PMC7528686 (Molecules and Cells, 2020).

Target: the molecule itself
Test: SEC

B1: CafA (residues 75-287), β-class carbonic anhydrase of Aspergillus fumigatus (enzyme, UniProt A4UTP0 75-287, looked up)
chain: DSLSDKFSAALAKNKEWAAKCSQEHPELLPTLAVGQHPEILWIGCSDSRCPETTILGLLPGDVFTHRNIANVIHPADLSSGAVIEFAVRHLRVKHVVICGHTKCGGVAAALGNKGLGILDPWLIPLRQLREQHLAELQSLSRDEAVVRLAELNVKEGLKALTQKSVVLEAMQERGLQVHGLIYDVGSGFLRQLDAAEPEEALKARLTSFKTDA
stoichiometry N: 4
